In the test the target is large hepatitis B surface protein (hepatitis B virus). The test is described as follows: cell-based or functional assay.

Consider one substance from US20180244726A1.

Regarding neutralizing monoclonal antibody Ma18/7, the inhibition of HBV infection of HepG2-hNTCP cells, secreted HBeAg is greater than 90%.
